Source: patent publication US9371393B2, “Class I anti-CEA antibodies and uses thereof” (Immunomedics, Inc., priority 2009, dated 2016)

How the values were obtained:
[1] = test system: MDA-468 adhesion to fibronectin; experiment: Adhesion to extracellular matrix proteins assay, MDA-468; assay type: cell-based, human
Protocol: (§1) Adhesion to extracellular matrix proteins assay—The assay was done using the CYTOMATRIX™ screening kit from CHEMICON® (Kit #ECM205, Temecula, Calif.). The kit contains 96-well plates with strips coated with fibronectin, vitronectin, laminin, collagen-I, or collagen-IV. Subconfluent cell cultures were used for these studies. Cells (1×10^6 cells/mol) were seeded onto coated substrate and incubated at 37° C. for 1 hour in a CO2 incubator in PBS containing Ca^2+/Mg^2+ (200 μL per well). Adherent cells were fixed and stained. The plate was washed to remove unadhered cells and stained with 100 μL per well of MTS (Cell Titer Aq 96, PROMEGA®, Madison, Wis.) for 5 minutes at room temperature. Excess stain was removed with three PBS washes. Solubilization buffer [100 μL of a 50:50 mixture of 0.1 mol/L NaH2PO4 (pH 4.5) and 50% ethanol] was added to each well. Relative attachment was determined using absorbance readings (A540 nm-A570 nm).

[2] = test system: ZR75-30 binding to fibronectin; experiment: Adhesion to extracellular matrix proteins assay, ZR75-30; assay type: cell-based, human
Protocol: as §1

NCA-90 (HeLa-KNC6/S44) = molecular target: T1, NCA-90 (HeLa-KNC6/S44) (Homo sapiens, UniProt P40199); experiment: Indirect flow cytometry, HeLa-KNC6/S44; assay type: binding; details: antibodies at 1/50 dilution of 1 mg/ml stocks
T1 construct: expressed in transfected cells; host or cells: HeLa (HeLa-KNC6/S44)
T1 sequence (P40199 35-320): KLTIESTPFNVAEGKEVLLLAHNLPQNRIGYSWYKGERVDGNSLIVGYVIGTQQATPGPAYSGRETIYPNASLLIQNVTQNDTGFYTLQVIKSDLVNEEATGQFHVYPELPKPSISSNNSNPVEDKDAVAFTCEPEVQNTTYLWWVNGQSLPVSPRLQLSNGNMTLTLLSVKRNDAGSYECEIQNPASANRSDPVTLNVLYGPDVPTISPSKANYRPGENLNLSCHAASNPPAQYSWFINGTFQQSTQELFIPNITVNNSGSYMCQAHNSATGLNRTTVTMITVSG
Protocol: The reactivity of antibodies was tested by flow cytometry with a Becton-Dickinson FACSCAN®. The biotinylated second antibody was directed against mouse IgG and was detected by a streptavidin/phycoerythrin conjugate. Tests were carried out with antibodies at 1/50 dilution of 1 mg/ml stocks.
The antibodies MN-3 and MN-15 were tested for recognition of HeLa cells transfected with cDNA coding for CEA (HeLa-CEA2), NCA-90 (HeLa-KNC6/S44) and NCA-95 (HeLa-CGM6/1). As a negative control, HeLa cells transfected with the plasmid pSV2-Neo (control HeLa cells, HeLa-NeoA) were used. In addition to the antibodies MN-3 and MN-15, three control antibodies were included: […]

[3] = test system: BXPC3 binding to fibronectin; experiment: Adhesion to extracellular matrix proteins assay, BXPC3; assay type: cell-based, human
Protocol: as §1

[4] = test system: MCF-7 cells adhesion to HUVEC; experiment: Endothelial cell adhesion assay, MCF-7; assay type: cell-based, human
Protocol: Endothelial cell adhesion assay—Human umbilical vein endothelial cells (HUVEC; Cambrex, San Diego, Calif.) were grown in collagen-coated dishes in EGM Media in a humidified atmosphere with 5% CO2 at 37° C. At passages 2 to 5, cells were plated at a density of 4×10^4 cells per well in 96-well plates 24 hours before the assay. Interleukin-1β (IL-1β, 1 ng/mol) was added 4 hours before the assay. At the start of the study, the medium with the IL-1β was removed and fresh DMEM with 1% bovine serum albumin (BSA) added and incubated for 30 minutes. Fresh medium without antibodies or with 10 μg/mol of MN-15 Fab′, MN-3 Fab′, or Ag8 Fab′ was added. Tumor cells (1×10^6 cells/mol) prelabeled overnight with ^3H-thymidine (100 μL per well using 1.0 μCi/mL) were added to HUVEC cultures and incubated for 30 minutes at 37° C. with rotation in medium with 20% FBS. Samples were washed thrice with PBS to remove unattached cells. Attached cells were solubilized with 0.1 N NaOH and radioactivity was measured in a β scintillation counter. The cpm attached/total cpm added (attaching potential) was determined.

[5] = test system: GW-39 human colonic carcinoma; experiment: GW-39 intrapulmonary micrometastasis model (GW-39iv), survival; assay type: in vivo, nude mice; details: cells pretreated with Fab′ 10 μg/mol, 100 μg i.v. 1 day after implantation; untreated 42 days
Protocol: FIG. 7 illustrates an exemplary in vivo micrometastasis study. Top, immunohistochemistry of GW-39 tumor sections stained with a nonspecific antibody (left), MN-14 anti-CEACAM5 (middle), and MN-15 anti-CEACAM6 (right) and photographed at 100×. Bottom, survival of nude mice implanted with 30 μL of a 10% suspension of GW-39 human colonic cancer cells. Mice were implanted with cells that were […] for 30 minutes with MN-3-, MN-15-, or hMN-14-Fab′ (10 μg/mol). Mice also received a single 100 μg dose of the same Fab′ 1 day after cell implantation.
In vivo therapy studies—Female athymic nude mice (6 to 8 weeks old) were purchased from TACONIC® (Germantown, N.Y.). Therapy studies were done using our CEACAM5+/CEACAM6+GW-39 intrapulmonary micrometastasis model, GW-39iv (Sharkey et al., J Natl Cancer Inst 1991, 83:627-32; Blumenthal et al., Cancer Res 1992, 52:6036-44). The GW-39 human colonic carcinoma has been maintained as a serially transplanted signet-ring cell cancer line since 1966 (Goldenberg et al., Transplantation 1966, 4:760-4). […] Body weight was monitored weekly and animal survival recorded. Results were analyzed by the Kaplan-Meier estimated survival curves, and significance was determined with the log-rank comparison of survival curves. Median survival time for each treatment group also was determined. […]

B1: MN-15: murine Class I anti-CEA MAb, IgG1 kappa, binds A1B1 domain of CEACAM5 and CEACAM6 (antibody, V domains shown)
VL: DIQLTQSPAIMSASPGEKVTMTCSASSRVSYIHWYQQKSGTSPKRWIYGTSTLASGVPARFSGSGSGTSYSLTISSMEAEDAATYYCQQWSYNPPTFGAGTKLELKR
VH: EVRLVESGGGLVQGPGSLRLSCAASGFALTDYYMSWVRQSPGKTLEWLGFIANKANGHTTDYSPSVKGRFTISRDNSQTILYLQMNTLRTEDSATYYCARDMGIRWNFDVWGQGTTVTVSS
decrease of adhesion to fibronectin [1]: 51%
effect on binding to fibronectin [2]: not affecting the binding
binding to NCA-90 (NCA-90 (HeLa-KNC6/S44)): binds to all three antigens
effect on binding to fibronectin [3]: not affecting the binding

B2: MN-15 Fab′: monovalent Fab′ fragment of murine MN-15 (antibody, V domains shown)
VL: DIQLTQSPAIMSASPGEKVTMTCSASSRVSYIHWYQQKSGTSPKRWIYGTSTLASGVPARFSGSGSGTSYSLTISSMEAEDAATYYCQQWSYNPPTFGAGTKLELKR
VH: EVRLVESGGGLVQGPGSLRLSCAASGFALTDYYMSWVRQSPGKTLEWLGFIANKANGHTTDYSPSVKGRFTISRDNSQTILYLQMNTLRTEDSATYYCARDMGIRWNFDVWGQGTTVTVSS
decrease in adhesion [4]: 41%
median survival time [5]: > 77 days
